# Literature values as cited in patent US20240156960A1 (priority 2020, published 2024).
# Changes are numbered by the printed parent chain. Where two headings read alike, the source gives them in different places.
# B1: mAb-85 (antibody, listed as Homo sapiens, V domains shown)
# VH: QVQLQESGPGLVKPSGTLSLTCAVSGGSITSRDWWSWVRQPPGKGLEWIGEVYHSGSTSYNPSLKSRVTISVDKSKNEFSLKLSSVTAADTAVYYCARAGNIVVMPAAQYYFDYWGQGTLVTVSS
# VL: EIVLTQSPSSLSASVGDRVTITCRASQDISNYLAWYQQKPGKAPKLLIYAASTLQSGVPLRFSGSGSGTDFTLTISSLQPEDFATYYCLQLHNYSSFGGGTKVDIK
# B2: mAb-87 (antibody, listed as Homo sapiens, V domains shown)
# VH: QVQLQESGPGLVKPSETLSLTCTVSGGSMNHYYWSWIRQPPGKGLEGIGYTYYSGSTNYNPSLKSRVTISVDASKNQFSLRLSSVTAADTAVYYCARGSQIDLRGGLGATFFDYWGQGTLVTVSS
# VL: QSVLTQPASVSGSPGQSITISCTGTSSDVGAYNYVSWYQQHPGKAPKLTVYDVRNRPSGVSNRFSGSKSGNTASLTISGLQAEDEAHYYCSSYTSTNTVFGGGTKLTVL
# B3: mAb-88 (antibody, listed as Homo sapiens, V domains shown)
# VH: QVQLVESGAEVKKPGSSVKISCKISGDTFSTNAISWLRQAPGREPEWMGGIVPLVGPASYAQRPQGRLTITADEFTNTAYLELNSLRSEDTATYYCARDSDPYTATRRHNHYWYAMDVWGQGTTVTVSS
# VL: DIRLTQTPLSLPVTLGQPASISCRSSQIAMHSDGNTYLSWFHQRPGQPPRRLIYKISNRDSGVPDRFSGSGSGTDFTLKISRVEAEDIGTFYCMQGTDWPRTFGQGTKVDIK
# B4: mAb-94 (antibody, listed as Homo sapiens, V domains shown)
# VH: QVQLVQSGAEVKKPGSSVKVSCKASGGMFTDYAISWVRQAPGQRLEWMGGIMPGLGSPAYAQIFRDRATISADVSTSTAYLELTSLKPEDTAVYYCARDPSILNTGNHHWYDLDIWGQGTTVTVSS
# VL: DIQLTQSPLSLPVGLGQSASISCRSSQRVVHTDGNTYLNWYHQRPGQSPRRLIYKVSNRDSGVPDRFSGSGSGTDFTLRISRVEAEDVGVYYCMQSTDWPRTFGQGTKLEIK
# B5: mBG21 (antibody, listed as Mus musculus, V domains shown)
# VH: QIQLVQSGPELKKPGETVKISCKASGYTFTDYSMHWVKQAPGKGSKWMGWINTETGEPTYADDFKGRFAFSLETSASTAYLQINNLKNEDTATYFCALRRWGQGTLVTVSS
# VL: IVMTQTPKFLLVSAGDRVTITCKASQSVSNDVAWFQQKPGQSPKKLLIYFASNRYTGVPDRFTGSGYGTDFTFTITTVQAEDLAVYFCQQDYSSPWTFGGGTKLEIK
# B6: mBG22 (antibody, listed as Mus musculus, V domains shown)
# VH: B5 VH with S111A
# VL: IVMTQTPKFLLVSAGDRVTITCKASQSVSNDVAWFQQKPGQSPKLLIYFASNRYTGVPDRFTGSGYGTDFTFTITTVQAEDLAVYFCQQDYSSPWTFGGGTKLEIK
# B7: mBG57 (antibody, listed as Mus musculus, V domains shown)
# VH: B5 VH with S111A
# VL: DIVMTQAAPSEPVTPGESVSISCGSSKSLLHSNDNTYLYWFLQRPGQSPQLLIYRMSNLASGVPDRFTGSGSGTAFTLRISRVEAEDVGVYYCMQHLENPLGVRWRHQAGNQT
# B8: mBG67 (antibody, listed as Mus musculus, V domains shown)
# VH: EVQLVESGGGLVQPGGSLKLSCAASGFTFSNYGMSWVRQTPDKRLELVATINRNGGSTYYLDSVKVRFTISRDNAKSTLFLQLSSLKSDDTAMYYCARIYDFDEDYFDVWGAGTTVTVSS
# VL: QIVLTQSPAIMSASLGERVTMTCTASSSVSSSYLHWYQQKPGSSPKLWIYSTSNLASGVPARFSGSGSGTSYSLTISSMEAEDAATYYCLQYHRSPWTFGGGTKLEIK
# B9: C022 (antibody, listed as Homo sapiens, V domains shown)
# VH: QVQLQESGPGLVKPSETLSVTCTVSGGSISSSRYYWGWIRQPPGKGLEWIGSIYYSGSTYYNPSLKSRVTISVDTSKNQFSLKLSSVTAADTAVYYCARHAAAYYDRSGYYFIEYFQHWGQGTLVTVSS
# VL: DIQMTQSPSTLSASVGDSVTITCRASQSISSWLAWYQQKPGKAPKLLIYKASSLESGVPSRFSGSGSGTEFTLTISSLQPDDFATYYCQQYNNYRYTFGQGTKLEIK
# B10: C113 (antibody, listed as Homo sapiens, V domains shown)
# VH: QVQLVESGGGVVQPGRSLRLSCAASGFTFSNFGMHWVRQAPGKGLEWVAVIWYDGSNKYYADSVKGRFTISRDNSKNTLYLQMNSLRAEDTAVYYCARGVNPDDILTGVDAFDIWGQGTMVTVSS
# VL: B9 VL with S18R, I29M, K42N, Y91H, N93S, Y94S, R95P, Y96L, Q100G, L104V
# B11: C114 (antibody, listed as Homo sapiens, V domains shown)
# VH: QVQLVESGGGLIQPGGSLKLSCVVSGFTVSKNYISWVRQAPGKGLEWVSVIFAGGSTFYADSVKGRFAISRDNSNNTLFLQMNSLRVEDTAIYYCARGDGELFFDQWGQGTLVTVSS
# VL: QSVLTQPPSVSGAPGQRVTISCTGTSSNIGAGYDVHWYQQLPGRAPKVLISGNNIRPSEVPDRFSGSRSGTSASLAITSLQPEDEAQYYCQSYDSSLYAVFGGGTKLTVL
# B12: C116 (antibody, listed as Homo sapiens, V domains shown)
# VH: QVQLVESGGGVVQPGRSLRLSCAASGFTYSTYAMHWVRQAPGKGLEWVAFISYDGSNKYYADSVKGRFTISRDNSKNTLYLQMNSLRAEDTAVYYCARDFYHNWFDPWGQGTLVTVSS
# VL: NFMLTQPHSVSESPGKTVTISCTGSSGSIASNYVQWYQQRPGSAPTTVIYEDNQRPSGVPDRFSGSIDRSSNSASLTISGLKTEDEADYYCQSYDSGNHWVVFGGGTRLTVL
# B13: C118 (antibody, listed as Homo sapiens, V domains shown)
# VH: QVQLVESGGGVVQPGRSLRLSCAASGFTFSNYAMHWVRQAPGKGLEWVAVISYDGSNKYYADSVKGRFTISRDNSKNTLYLQMNSLRAEDTAIYYCASGYTGYDYFVRGDYYGLDVWGQGTTVTVSS
# VL: QPVLTQSPSASASLGASVKLTCTLSSGHSSYAIAWHQQQPEKGPRYLMKLNTDGSHSKGDGIPDRFSGSSSGAERYLTISSLQSEDEADYYCQTWGTGILVFGGGTKLTVL
# B14: C126 (antibody, listed as Homo sapiens, V domains shown)
# VH: QVQLQESGPGLVKPSETLSLSCAVSGGSIGSYFWSWIRQPPGKGLEWIGYLHYSGSTNYNPSLKSRVTISVDTSKNQFSLKLSSVTAADTAVYYCARLQWLRGAFDIWGQGTMVTVSS
# VL: NFMLTQPHSVSESPGKTVTISCTGSSGSIASNYVQWYQQRPGSAPTTVINEDNQRPSGVPDRFSGSIDSSSNSASLTISGLKTEDEADYYCQSYDSSNLVFGGGTKLTVL
# B15: C128 (antibody, listed as Homo sapiens, V domains shown)
# VH: EVQLLESGGGLVQPGGSLRLSCAASGFTFSTYAMSWVRQAPGKGLEWVSTITGSGRDTYYADSVKGRFTISRDNSKNTLFLQLNSLRAEDAAVYSCANHPLASGDDYYHYYMDVWGKGTTVTVSS
# VL: EIVLTQSPGTLSLSPGERATLSCRASQSVNSRQLAWYQQKPGQAPRLLIYGASSRATGIPERFSGSGSGTDFTLTISRLESEDFAVYHCQQYGSSRALTFGGGTKVEIK
# B16: 2M-8H10 (antibody, listed as Homo sapiens, V domains shown)
# VH: QVQLVESGGGVVLPGRSLRLSCAASGFTFSTFAMHWVRQAPGKGLEWVAVISDEGSNKYYADSVKGRFTISRDNSRNTLYLQMNSLRAEDTAVYYCARAFYDSNWSVGSYFDSWGQGTPVTVSS
# VL: DIQMTQSPDSLAVSLGERATIKCKSSQSVLHSSNNKNYLAWYQQKAGQPPSLLLYWASTRESGVPDRFSGSGSGTDFTLTISSLQAEDVAVYYCQQYYNNQWTFGQGTKVDIK
# B17: 2M-9F10 (antibody, listed as Homo sapiens, V domains shown)
# VH: EVQLLQSGGDLIQPGRSLRLSCAASGFSFEDYAMHWVRQAPGQGLEWVSGISYNGGSIDYVDSVKGRFTISRDNAKNALYLEMNSLRPEDTAFYYCAKDSVRREYTHARVPFDNWGLGTLVTVSS
# VL: AIRMTQSPSSLSASVGDRVTISCRATQNINYFLNWYQQKPGRAPKLLIYAASGLQSGVPSRFSGSGTGRVFTLTINSLQPDDFATYYCQQSFVSPRTFGQGTKVDIK
# B18: 2M-9H1 (antibody, listed as Homo sapiens, V domains shown)
# VH: EVQLLESGGGVVQPGRSLRLSCVASGFNFNNYGMHWVRQAPGKGLEWLAALSYEGSKEHYADSLKGRFTVSRDYSRATLHLHMNSLEPEDTAVYFCAKSSKIFYLGESREVDYWGRGTLVTVSS
# VL: DIVMTQSPSSLSAFVGDRVTITCRASRDIGGDLSWFQQKPGKAPERLIYAASSLESGVPSRFSGSGSATEFALTITSLQPEDFATYYCLQHKSYPLTFGGGTKVDIK
# Tests used:
# SARS-CoV2 S = SARS-CoV2 S (Severe acute respiratory syndrome coronavirus 2, UniProt P0DTC2); details: Protein + Epitope S, Unk
# SARS-CoV1 S = SARS-CoV1 S (Severe acute respiratory syndrome coronavirus, UniProt P59594)
# NL63 S = NL63 S (Human coronavirus NL63, UniProt Q6Q1S2); details: Protein + Epitope S, Unk
# Sequence of NL63 S (Q6Q1S2 19-1356): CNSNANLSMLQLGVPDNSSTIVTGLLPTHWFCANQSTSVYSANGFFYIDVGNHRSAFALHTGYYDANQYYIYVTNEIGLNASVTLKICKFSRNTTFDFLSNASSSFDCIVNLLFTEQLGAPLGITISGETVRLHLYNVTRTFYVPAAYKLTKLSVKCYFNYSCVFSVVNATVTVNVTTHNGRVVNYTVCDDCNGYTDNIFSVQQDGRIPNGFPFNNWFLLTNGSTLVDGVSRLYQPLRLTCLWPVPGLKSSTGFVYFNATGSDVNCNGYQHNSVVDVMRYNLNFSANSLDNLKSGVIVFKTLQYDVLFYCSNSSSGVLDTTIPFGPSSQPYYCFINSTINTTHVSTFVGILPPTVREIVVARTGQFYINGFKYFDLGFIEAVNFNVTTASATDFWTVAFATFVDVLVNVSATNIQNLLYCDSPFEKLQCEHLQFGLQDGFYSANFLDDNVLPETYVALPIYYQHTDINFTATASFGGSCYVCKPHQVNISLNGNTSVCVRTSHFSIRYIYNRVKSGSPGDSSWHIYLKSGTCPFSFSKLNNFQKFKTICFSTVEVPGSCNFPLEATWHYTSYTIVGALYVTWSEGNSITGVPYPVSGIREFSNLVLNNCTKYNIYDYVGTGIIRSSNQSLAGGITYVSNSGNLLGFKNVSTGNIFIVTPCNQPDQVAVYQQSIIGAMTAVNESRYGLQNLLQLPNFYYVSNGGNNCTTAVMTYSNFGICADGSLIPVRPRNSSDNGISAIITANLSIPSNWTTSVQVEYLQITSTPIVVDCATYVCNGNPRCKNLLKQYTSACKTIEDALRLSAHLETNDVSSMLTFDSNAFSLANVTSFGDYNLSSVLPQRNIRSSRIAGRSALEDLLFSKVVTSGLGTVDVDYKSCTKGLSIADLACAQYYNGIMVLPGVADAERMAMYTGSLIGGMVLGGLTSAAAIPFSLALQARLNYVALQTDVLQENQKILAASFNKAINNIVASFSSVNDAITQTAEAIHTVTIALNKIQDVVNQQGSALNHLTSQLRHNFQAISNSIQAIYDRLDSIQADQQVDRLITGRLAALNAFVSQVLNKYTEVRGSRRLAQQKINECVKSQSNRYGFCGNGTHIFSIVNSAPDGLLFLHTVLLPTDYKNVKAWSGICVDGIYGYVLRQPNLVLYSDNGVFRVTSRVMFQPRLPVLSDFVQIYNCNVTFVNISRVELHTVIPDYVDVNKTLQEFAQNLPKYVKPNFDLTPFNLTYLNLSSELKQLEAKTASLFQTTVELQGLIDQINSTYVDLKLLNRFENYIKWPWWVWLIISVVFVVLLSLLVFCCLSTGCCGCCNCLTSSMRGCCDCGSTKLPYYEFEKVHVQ
# OC43 S = OC43 S (Human coronavirus OC43, UniProt P36334); details: Protein + Epitope S, Unk
# Sequence of OC43 S (P36334 14-1353): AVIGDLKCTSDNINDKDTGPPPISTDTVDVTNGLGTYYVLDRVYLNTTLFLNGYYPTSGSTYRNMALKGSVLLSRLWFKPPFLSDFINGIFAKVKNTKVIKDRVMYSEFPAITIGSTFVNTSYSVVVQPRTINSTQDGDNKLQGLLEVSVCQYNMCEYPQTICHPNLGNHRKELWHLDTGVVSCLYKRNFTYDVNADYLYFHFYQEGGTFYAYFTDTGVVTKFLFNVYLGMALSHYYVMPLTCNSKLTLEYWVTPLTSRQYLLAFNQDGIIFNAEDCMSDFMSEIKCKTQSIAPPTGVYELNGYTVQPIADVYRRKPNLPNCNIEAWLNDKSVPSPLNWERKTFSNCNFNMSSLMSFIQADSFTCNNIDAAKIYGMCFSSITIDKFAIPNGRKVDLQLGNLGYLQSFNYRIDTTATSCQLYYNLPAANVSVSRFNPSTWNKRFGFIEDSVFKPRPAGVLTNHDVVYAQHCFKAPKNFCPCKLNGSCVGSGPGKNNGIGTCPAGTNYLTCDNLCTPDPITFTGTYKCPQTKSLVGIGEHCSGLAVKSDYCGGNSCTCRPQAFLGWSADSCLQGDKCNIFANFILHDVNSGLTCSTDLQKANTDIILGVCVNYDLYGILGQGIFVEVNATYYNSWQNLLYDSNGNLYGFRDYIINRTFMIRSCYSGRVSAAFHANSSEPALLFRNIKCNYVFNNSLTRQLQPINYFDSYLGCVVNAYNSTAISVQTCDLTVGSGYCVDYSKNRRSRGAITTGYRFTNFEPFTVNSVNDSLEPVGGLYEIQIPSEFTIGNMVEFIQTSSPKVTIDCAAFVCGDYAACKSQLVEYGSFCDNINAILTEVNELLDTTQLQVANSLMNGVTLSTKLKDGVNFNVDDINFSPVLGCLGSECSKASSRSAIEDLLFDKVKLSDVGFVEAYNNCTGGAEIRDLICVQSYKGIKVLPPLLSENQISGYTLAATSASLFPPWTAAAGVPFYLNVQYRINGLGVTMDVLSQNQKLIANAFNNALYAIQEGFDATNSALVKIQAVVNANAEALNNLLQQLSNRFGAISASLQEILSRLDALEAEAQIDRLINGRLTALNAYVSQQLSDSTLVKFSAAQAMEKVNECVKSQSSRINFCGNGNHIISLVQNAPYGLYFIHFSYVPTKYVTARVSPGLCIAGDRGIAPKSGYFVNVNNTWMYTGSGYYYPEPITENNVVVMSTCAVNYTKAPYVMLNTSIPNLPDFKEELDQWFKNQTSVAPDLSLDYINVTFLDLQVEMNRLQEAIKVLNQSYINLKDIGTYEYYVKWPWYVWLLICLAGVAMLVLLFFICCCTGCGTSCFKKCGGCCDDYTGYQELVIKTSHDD
# [1] = test system: SARS-CoV2, SARS-CoV1, NL63, 229E, HKU1, OC43
# SARS-CoV1 [2] = test system: SARS-CoV1
# SARS-CoV2 S; RBD = SARS-CoV2 S; RBD (Severe acute respiratory syndrome coronavirus 2, UniProt P0DTC2); details: epitope S
# SARS-CoV1 [3] = test system: SARS-CoV1; remark: listed apart in the source
# SARS-CoV2 [4] = details: source Davide Robbiani et al., 2020
# SARS-CoV1 [5] = test system: SARS-CoV1; remark: listed apart in the source
# SARS-CoV2 [6] = test system: SARS-CoV2
molecule,measurement,setting,value
B1,Binds to,SARS-CoV2 S,SARS-CoV2
same,Doesn't Bind to,SARS-CoV1 S,CoV1
same,Doesn't Bind to,NL63 S,"NL63,"
same,Doesn't Bind to,OC43 S,"OC43,"
B2,Binds to,SARS-CoV2 S,SARS-CoV2
same,Doesn't Bind to,SARS-CoV1 S,CoV1
same,Doesn't Bind to,NL63 S,"NL63,"
same,Doesn't Bind to,OC43 S,"OC43,"
B3,Binds to,SARS-CoV2 S,SARS-CoV2
same,Doesn't Bind to,SARS-CoV1 S,CoV1
same,Doesn't Bind to,NL63 S,"NL63,"
same,Doesn't Bind to,OC43 S,"OC43,"
B4,Binds to,SARS-CoV2 S,SARS-CoV2
same,Doesn't Bind to,SARS-CoV1 S,CoV1
same,Doesn't Bind to,NL63 S,"NL63,"
same,Doesn't Bind to,OC43 S,"OC43,"
B5,Binds to,[1],NL63
B6,Binds to,[1],NL63
B7,Binds to,[1],NL63
B8,Binds to,[1],NL63
B9,Binds to,SARS-CoV1 [2],"SARS-CoV1,"
same,Binds to,SARS-CoV2 S; RBD,SARS-CoV2
B10,Not Neutralising Vs,SARS-CoV1 [3],"SARS-CoV1,"
same,Binds to,SARS-CoV2 S; RBD,SARS-CoV2
B11,Not Neutralising Vs,SARS-CoV1 [3],"SARS-CoV1,"
same,Binds to,SARS-CoV2 S; RBD,SARS-CoV2
B12,Not Neutralising Vs,SARS-CoV1 [3],"SARS-CoV1,"
same,Binds to,SARS-CoV2 S; RBD,SARS-CoV2
B13,Binds to,SARS-CoV1 [2],"SARS-CoV1,"
same,Binds to,SARS-CoV2 S; RBD,SARS-CoV2
B14,Not Neutralising Vs,SARS-CoV1 [3],"SARS-CoV1,"
same,Binds to,SARS-CoV2 S; RBD,SARS-CoV2
B15,Binds to,SARS-CoV2 [4],SARS-CoV2
same,Not Neutralising Vs,SARS-CoV1 [5],SARS-CoV1
B16,Binds to,SARS-CoV2 [6],SARS-CoV2
B17,Binds to,SARS-CoV2 [6],SARS-CoV2
B18,Binds to,SARS-CoV2 [6],SARS-CoV2
